The test concerns the target RBM5-Myc (UniProt P52756).
Chain of UniProt P52756 (P52756 whole entry): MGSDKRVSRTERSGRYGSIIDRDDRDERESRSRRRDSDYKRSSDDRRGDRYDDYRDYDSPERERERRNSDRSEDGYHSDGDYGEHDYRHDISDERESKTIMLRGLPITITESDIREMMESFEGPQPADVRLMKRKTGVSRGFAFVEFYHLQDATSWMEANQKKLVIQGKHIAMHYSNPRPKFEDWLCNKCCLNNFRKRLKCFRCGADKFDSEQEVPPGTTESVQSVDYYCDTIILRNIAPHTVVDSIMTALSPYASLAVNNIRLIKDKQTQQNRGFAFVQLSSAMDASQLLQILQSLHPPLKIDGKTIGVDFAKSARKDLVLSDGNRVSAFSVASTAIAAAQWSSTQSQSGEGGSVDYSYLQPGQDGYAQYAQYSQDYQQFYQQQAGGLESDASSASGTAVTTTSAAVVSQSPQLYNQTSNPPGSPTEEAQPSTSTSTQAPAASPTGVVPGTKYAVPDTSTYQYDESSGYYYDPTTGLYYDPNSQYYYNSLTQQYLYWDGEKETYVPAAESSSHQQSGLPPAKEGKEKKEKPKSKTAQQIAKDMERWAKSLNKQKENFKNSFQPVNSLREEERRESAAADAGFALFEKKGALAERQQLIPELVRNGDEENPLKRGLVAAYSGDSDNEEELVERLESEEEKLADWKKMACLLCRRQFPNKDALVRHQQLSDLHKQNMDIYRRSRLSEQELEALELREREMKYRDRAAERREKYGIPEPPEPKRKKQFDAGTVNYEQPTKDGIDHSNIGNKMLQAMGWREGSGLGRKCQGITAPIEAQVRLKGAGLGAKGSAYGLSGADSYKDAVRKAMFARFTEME

In turn, “InlP-HA (in HeLa cells) (natural protein)” had a percentage of HeLa cells with aberrantly shaped nuclei (RBM5-induced cell death) when InlP is co-expressed with RBM5 of 13%.

The values are drawn from publication PMC9763339.
